The results in this text go back to the Human Domainome abundance scans (Beltran et al. 2025).

± gives the uncertainty stated by the source.

B1: Retinoic acid receptor RXR-alpha, residues 132 to 208; numbered along this chain, P19793 (parent)
chain: KHICAICGDRSSGKHYGVYSCEGCKGFFKRTVRKDLTYTCRDNKDCLIDKRQRNRCQYCRYQKCLAMGMKREAVQEE

In the data set the parent is B1. The experiment in a line: abundance fitness (aPCA) (normalised: wild type 0, dead -1); higher = more abundant; growth selection in yeast, the domain comes from the species named. Particulars: Homo sapiens.
KHKCAICGDRSSGKHYGVYSCEGCKGFFKRTVRKDLTYTCRDNKDCLIDKRQRNRCQYCRYQKCLAMGMKREAVQEE [I3K]: the abundance fitness was -0.144 ± 0.048.

KHNCAICGDRSSGKHYGVYSCEGCKGFFKRTVRKDLTYTCRDNKDCLIDKRQRNRCQYCRYQKCLAMGMKREAVQEE [I3N]: the abundance fitness is -0.001 ± 0.033.

As to KHACAICGDRSSGKHYGVYSCEGCKGFFKRTVRKDLTYTCRDNKDCLIDKRQRNRCQYCRYQKCLAMGMKREAVQEE [I3A], the abundance fitness is -0.229 ± 0.033.

On to KHFCAICGDRSSGKHYGVYSCEGCKGFFKRTVRKDLTYTCRDNKDCLIDKRQRNRCQYCRYQKCLAMGMKREAVQEE [I3F], for which the abundance fitness is -0.06 ± 0.04.

For CHICAICGDRSSGKHYGVYSCEGCKGFFKRTVRKDLTYTCRDNKDCLIDKRQRNRCQYCRYQKCLAMGMKREAVQEE [K1C], the abundance fitness is -0.185 ± 0.053.

For VHICAICGDRSSGKHYGVYSCEGCKGFFKRTVRKDLTYTCRDNKDCLIDKRQRNRCQYCRYQKCLAMGMKREAVQEE [K1V], the abundance fitness is -0.206 ± 0.042.

In the case of RHICAICGDRSSGKHYGVYSCEGCKGFFKRTVRKDLTYTCRDNKDCLIDKRQRNRCQYCRYQKCLAMGMKREAVQEE [K1R], the abundance fitness was -0.286 ± 0.055.

With AHICAICGDRSSGKHYGVYSCEGCKGFFKRTVRKDLTYTCRDNKDCLIDKRQRNRCQYCRYQKCLAMGMKREAVQEE [K1A], the abundance fitness is -0.531 ± 0.094.

On to MHICAICGDRSSGKHYGVYSCEGCKGFFKRTVRKDLTYTCRDNKDCLIDKRQRNRCQYCRYQKCLAMGMKREAVQEE [K1M], for which the abundance fitness is -0.067 ± 0.05.

Take NHICAICGDRSSGKHYGVYSCEGCKGFFKRTVRKDLTYTCRDNKDCLIDKRQRNRCQYCRYQKCLAMGMKREAVQEE [K1N]: the abundance fitness was -0.024 ± 0.045.

Turning to HHICAICGDRSSGKHYGVYSCEGCKGFFKRTVRKDLTYTCRDNKDCLIDKRQRNRCQYCRYQKCLAMGMKREAVQEE [K1H], the abundance fitness was -0.222 ± 0.06.

With THICAICGDRSSGKHYGVYSCEGCKGFFKRTVRKDLTYTCRDNKDCLIDKRQRNRCQYCRYQKCLAMGMKREAVQEE [K1T], the abundance fitness was -0.435 ± 0.051.

For LHICAICGDRSSGKHYGVYSCEGCKGFFKRTVRKDLTYTCRDNKDCLIDKRQRNRCQYCRYQKCLAMGMKREAVQEE [K1L], the abundance fitness was -0.333 ± 0.05.

For FHICAICGDRSSGKHYGVYSCEGCKGFFKRTVRKDLTYTCRDNKDCLIDKRQRNRCQYCRYQKCLAMGMKREAVQEE [K1F], the abundance fitness was -0.217 ± 0.065.

As for YHICAICGDRSSGKHYGVYSCEGCKGFFKRTVRKDLTYTCRDNKDCLIDKRQRNRCQYCRYQKCLAMGMKREAVQEE [K1Y], the abundance fitness was -0.119 ± 0.045.

With WHICAICGDRSSGKHYGVYSCEGCKGFFKRTVRKDLTYTCRDNKDCLIDKRQRNRCQYCRYQKCLAMGMKREAVQEE [K1W], the abundance fitness was -0.341 ± 0.076.

SHICAICGDRSSGKHYGVYSCEGCKGFFKRTVRKDLTYTCRDNKDCLIDKRQRNRCQYCRYQKCLAMGMKREAVQEE [K1S]: the abundance fitness was -0.299 ± 0.042.

Regarding DHICAICGDRSSGKHYGVYSCEGCKGFFKRTVRKDLTYTCRDNKDCLIDKRQRNRCQYCRYQKCLAMGMKREAVQEE [K1D], the abundance fitness is -0.02 ± 0.05.

For EHICAICGDRSSGKHYGVYSCEGCKGFFKRTVRKDLTYTCRDNKDCLIDKRQRNRCQYCRYQKCLAMGMKREAVQEE [K1E], the abundance fitness was -0.117 ± 0.058.

Take KCICAICGDRSSGKHYGVYSCEGCKGFFKRTVRKDLTYTCRDNKDCLIDKRQRNRCQYCRYQKCLAMGMKREAVQEE [H2C]: the abundance fitness was -0.267 ± 0.071.

In the case of KMICAICGDRSSGKHYGVYSCEGCKGFFKRTVRKDLTYTCRDNKDCLIDKRQRNRCQYCRYQKCLAMGMKREAVQEE [H2M], the abundance fitness came to 0.078 ± 0.054.

KEICAICGDRSSGKHYGVYSCEGCKGFFKRTVRKDLTYTCRDNKDCLIDKRQRNRCQYCRYQKCLAMGMKREAVQEE [H2E]: the abundance fitness came out at 0.055 ± 0.051.

With KLICAICGDRSSGKHYGVYSCEGCKGFFKRTVRKDLTYTCRDNKDCLIDKRQRNRCQYCRYQKCLAMGMKREAVQEE [H2L], the abundance fitness was -0.041 ± 0.037.

KPICAICGDRSSGKHYGVYSCEGCKGFFKRTVRKDLTYTCRDNKDCLIDKRQRNRCQYCRYQKCLAMGMKREAVQEE [H2P]: the abundance fitness is -0.453 ± 0.063.

Consider KVICAICGDRSSGKHYGVYSCEGCKGFFKRTVRKDLTYTCRDNKDCLIDKRQRNRCQYCRYQKCLAMGMKREAVQEE [H2V], for which the abundance fitness is -0.142 ± 0.042.

Consider KTICAICGDRSSGKHYGVYSCEGCKGFFKRTVRKDLTYTCRDNKDCLIDKRQRNRCQYCRYQKCLAMGMKREAVQEE [H2T], for which the abundance fitness is -0.026 ± 0.052.

With KYICAICGDRSSGKHYGVYSCEGCKGFFKRTVRKDLTYTCRDNKDCLIDKRQRNRCQYCRYQKCLAMGMKREAVQEE [H2Y], the abundance fitness was -0.008 ± 0.067.

As to KIICAICGDRSSGKHYGVYSCEGCKGFFKRTVRKDLTYTCRDNKDCLIDKRQRNRCQYCRYQKCLAMGMKREAVQEE [H2I], the abundance fitness is 0.189 ± 0.085.

For the variant KQICAICGDRSSGKHYGVYSCEGCKGFFKRTVRKDLTYTCRDNKDCLIDKRQRNRCQYCRYQKCLAMGMKREAVQEE [H2Q], the abundance fitness was -0.031 ± 0.043.

With KSICAICGDRSSGKHYGVYSCEGCKGFFKRTVRKDLTYTCRDNKDCLIDKRQRNRCQYCRYQKCLAMGMKREAVQEE [H2S], the abundance fitness is 0.011 ± 0.043.

KGICAICGDRSSGKHYGVYSCEGCKGFFKRTVRKDLTYTCRDNKDCLIDKRQRNRCQYCRYQKCLAMGMKREAVQEE [H2G]: the abundance fitness was -0.005 ± 0.031.

Take KDICAICGDRSSGKHYGVYSCEGCKGFFKRTVRKDLTYTCRDNKDCLIDKRQRNRCQYCRYQKCLAMGMKREAVQEE [H2D]: the abundance fitness was found to be 0.072 ± 0.061.

For the variant KNICAICGDRSSGKHYGVYSCEGCKGFFKRTVRKDLTYTCRDNKDCLIDKRQRNRCQYCRYQKCLAMGMKREAVQEE [H2N], the abundance fitness is -0.001 ± 0.062.

As for KRICAICGDRSSGKHYGVYSCEGCKGFFKRTVRKDLTYTCRDNKDCLIDKRQRNRCQYCRYQKCLAMGMKREAVQEE [H2R], the abundance fitness was -0.101 ± 0.032.

On to KKICAICGDRSSGKHYGVYSCEGCKGFFKRTVRKDLTYTCRDNKDCLIDKRQRNRCQYCRYQKCLAMGMKREAVQEE [H2K], for which the abundance fitness is 0.096 ± 0.047.

As to KWICAICGDRSSGKHYGVYSCEGCKGFFKRTVRKDLTYTCRDNKDCLIDKRQRNRCQYCRYQKCLAMGMKREAVQEE [H2W], the abundance fitness was -0.109 ± 0.044.
